Laboratory results as given in article PMC10724265 (2023).
Values belong to the binder of their own block, whether it stands above or below them. Where no end group is shown, it is not given here.

What was measured:
[1] = target: T1, LC3B (UniProt Q9GZQ8 1-120); test: ITC; phosphorylated LIR peptide
[2] = target: T1, LC3B; test: ITC

Kd [1]: 180 nM
Binder: LDTDAEGDDFELLDQSELSQ (also: phosphorylated close to the LIR motif, residues not given here) [synthetic FAM134C-LIR peptide, phosphorylated form]

Kd [2]: 1030 nM
B1: synthetic FAM134C-LIR peptide, non-phosphorylated form (peptide)
chain: LDTDAEGDDFELLDQSELSQ
modifications: synthetic peptide, non-phosphorylated; the exact peptide limits are not printed in the text (figure/supplement); limits taken as the UniProt LIR motif 445-450 plus 7 flanking residues on each side; terminal chemistry unknown
